Assay results: patent US20250066452A1, “SYNTHETIC AMPHIPATHIC HELICAL PEPTIDES AND TREATMENT METHODS USING SYNTHETIC AMPHIPATHIC HELICAL PEPTIDES” (UNIVERSITY OF MARYLAND, BALTIMORE, priority 2022, published 2025)

What was measured:
[1] = test system: wild-type (WT) HEK293 cells; assay: IL-8 in conditioned medium (ELISA) of wild-type HEK293 cells after 20 hours incubation with CD36 ligands; format: cell-based; settings: wildtype HEK293 cells; increasing ligand concentrations; 20 hours (FIG. 8)
Procedure: (§1) Following 20 hours incubation of wild-type (WT) and CD36-expressing (CD36+) HEK293 cells with increasing concentrations of CD36 ligands, the IL-8 levels were determined in conditioned medium by ELISA.
(§2) To study this, the applicant conducted cell culture experiments using wildtype (WT) and CD36+ expressing (CD36+) HEK293 cells, treated with increasing amounts of CD36 ligands. Specifically, the ligands tested were the PAMP lipopolysaccharide (LPS) and the DAMPs high mobility group box 1 protein (HMGB1), Histone H3B, and heat shock protein 60 (HSP60). […] Similarly to HSP60, it is presumed that HSP70 and HSP90 also cause inflammation mediated by the CD36 receptor, and which may be alleviated by the disclosed peptides.

CD36 = target: T1, CD36 (Homo sapiens, UniProt P16671); assay: IL-8 in conditioned medium (ELISA) of CD36-expressing HEK293 cells after 20 hours incubation with CD36 ligands; format: cell-based; settings: CD36-expressing HEK293 cells; increasing ligand concentrations; 20 hours (FIG. 8)
T1 construct: expressed in transfected cells; host or cells: HEK293
Procedure: as §1
Following 20 hours incubation of CD36-expressing cells with the indicated amounts of the ligands, the IL-8 levels were determined in conditioned medium.
as §2
Additionally, the applicant studied the effects of the above-referenced SAHP L37pA as an inhibitor of CD36-dependent, PAMP/DAMP-induced pro-inflammatory response. See FIGS. 9(a)-9(c) To study this, the applicant conducted cell culture experiments using CD36+ HEK293 cells, treated with increasing amounts of CD36 ligands. […] As controls, no treatment, L37pA alone, and L3D alone were administered.
As controls, no treatment, L37pA alone, and L3D alone were administered. […]

T1 sequence (P16671 whole entry): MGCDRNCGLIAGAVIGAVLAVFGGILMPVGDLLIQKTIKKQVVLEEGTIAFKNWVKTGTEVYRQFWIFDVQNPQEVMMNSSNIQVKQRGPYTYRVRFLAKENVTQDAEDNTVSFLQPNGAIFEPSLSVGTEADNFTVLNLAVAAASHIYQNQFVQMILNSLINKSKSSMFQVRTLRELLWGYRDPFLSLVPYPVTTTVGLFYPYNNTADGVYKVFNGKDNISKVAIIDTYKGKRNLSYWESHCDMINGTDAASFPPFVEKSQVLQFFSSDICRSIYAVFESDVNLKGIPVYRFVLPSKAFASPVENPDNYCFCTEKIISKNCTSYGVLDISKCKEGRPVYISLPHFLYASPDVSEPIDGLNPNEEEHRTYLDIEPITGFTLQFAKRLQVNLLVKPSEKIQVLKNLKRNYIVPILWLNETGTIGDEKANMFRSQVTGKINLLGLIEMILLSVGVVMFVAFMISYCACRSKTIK

B1: heat shock protein 60 (protein, UniProt P10809 27-573, looked up)
60 kDa heat shock protein, …: AKDVKFGADARALMLQGVDLLADAVAVTMGPKGRTVIIEQSWGSPKVTKDGVTVAKSIDLKDKYKNIGAKLVQDVANNTNEEAGDGTTTATVLARSIAKEGFEKISKGANPVEIRRGVMLAVDAVIAELKKQSKPVTTPEEIAQVATISANGDKEIGNIISDAMKKVGRKGVITVKDGKTLNDELEIIEGMKFDRGYISPYFINTSKGQKCEFQDAYVLLSEKKISSIQSIVPALEIANAHRKPLVIIAEDVDGEALSTLVLNRLKVGLQVVAVKAPGFGDNRKNQLKDMAIATGGAVFGEEGLTLNLEDVQPHDLGKVGEVIVTKDDAMLLKGKGDKAQIEKRIQEIIEQLDVTTSEYEKEKLNERLAKLSDGVAVLKVGGTSDVEVNEKKDRVTDALNATRAAVEEGIVLGGGCALLRCIPALDSLTPANEDQKIGIEIIKRTLKIPAMTIAKNAGVEGSLIVEKIMQSSSEVGYDAMAGDFVNMVEKGIIDPTKVVRTALLDAAGVASLLTTAEVVVTEIPKEEKDPGMGAMGGMGGGMGGGMF
notes: DAMP, CD36 ligand
IL-8 produced by cells treated with the ligand [1]: minimal amount of interleukin 8
IL-8 produced by cells treated with the ligand (CD36): significant amount of IL-8
